Measured values from the supplement of paper PMC10567573.

B1: BRF1 (parent)
chain: FVESSGGGSSAVGQFVSLDGAGKT

Variants of: B1
Assay: protein stability index of a GFP-peptide fusion (GPS, HEK-293T) (PSI 1-6); higher = more stable
Conditions: c terminus: a fixed tail appended
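Also: lentivirally expressed fusions sorted by FACS into six bins by GFP to DsRed ratio, PSI derived from sequencing read proportions per bin multiplied by bin number.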

Variant	protein stability index
FVESSGGGSSAVGQFQSLDGAGKT [V16Q]	2.97
FVESSGGGSSAVGQFLSLDGAGKT [V16L]	2.36
FVESSGGGSSAVGQFCSLDGAGKT [V16C]	3.51
FVESSGGGSSAVGQFFSLDGAGKT [V16F]	2.01
FVESSGGGSSAVGQFRSLDGAGKT [V16R]	2.35
FVESSGGGSSAVGQFYSLDGAGKT [V16Y]	1.75
FVESSGGGSSAVGQFWSLDGAGKT [V16W]	4.22
FVESSGGGSSAVGQFISLDGAGKT [V16I]	2.18
FVESSGGGSSAVGQFASLDGAGKT [V16A]	2.65
FVESSGGGSSAVGQFESLDGAGKT [V16E]	3.51
FVESSGGGSSAVGQFGSLDGAGKT [V16G]	2.4
FVESSGGGSSAVGQFDSLDGAGKT [V16D]	2.96
FVESSGGGSSAVGQFKSLDGAGKT [V16K]	2.16
FVESSGGGSSAVGQFTSLDGAGKT [V16T]	2.38
FVESSGGGSSAVGQFNSLDGAGKT [V16N]	2.63
FVESSGGGSSAVGQFSSLDGAGKT [V16S]	2.83
FVESSGGGSSAVGQFPSLDGAGKT [V16P]	2.66
FVESSGGGSSAVGQFHSLDGAGKT [V16H]	2.6
FVESSGGGSSAVGQFMSLDGAGKT [V16M]	2.96
FVESSGGGSIAVGQFVSLDGAGKT [S10I]	1.37
FVESSGGGSTAVGQFVSLDGAGKT [S10T]	2.72
FVESSGGGSRAVGQFVSLDGAGKT [S10R]	1.98
FVESSGGGSCAVGQFVSLDGAGKT [S10C]	1.33
FVESSGGGSPAVGQFVSLDGAGKT [S10P]	2.57

Variant	protein stability index
FVESSGGGSQAVGQFVSLDGAGKT [S10Q]	2.53
FVESSGGGSVAVGQFVSLDGAGKT [S10V]	1.96
FVESSGGGSKAVGQFVSLDGAGKT [S10K]	1.42
FVESSGGGSDAVGQFVSLDGAGKT [S10D]	2.75
FVESSGGGSYAVGQFVSLDGAGKT [S10Y]	1.64
FVESSGGGSNAVGQFVSLDGAGKT [S10N]	2.31
FVESSGGGSLAVGQFVSLDGAGKT [S10L]	1.81
FVESSGGGSMAVGQFVSLDGAGKT [S10M]	1.46
FVESSGGGSHAVGQFVSLDGAGKT [S10H]	1.99
FVESSGGGSEAVGQFVSLDGAGKT [S10E]	2.31
FVESSGGGSGAVGQFVSLDGAGKT [S10G]	2.23
FVESSGGGSSDVGQFVSLDGAGKT [A11D]	2.68
FVESSGGGSSHVGQFVSLDGAGKT [A11H]	1.9
FVESSGGGSSLVGQFVSLDGAGKT [A11L]	1.77
FVESSGGGSSCVGQFVSLDGAGKT [A11C]	1.58
FVESSGGGSSQVGQFVSLDGAGKT [A11Q]	2.61
FVESSGGGSSMVGQFVSLDGAGKT [A11M]	1.63
FVESSGGGSSPVGQFVSLDGAGKT [A11P]	2.42
FVESSGGGSSSVGQFVSLDGAGKT [A11S]	1.95
FVESSGGGSSNVGQFVSLDGAGKT [A11N]	2
FVESSGGGSSFVGQFVSLDGAGKT [A11F]	2.02
FVESSGGGSSYVGQFVSLDGAGKT [A11Y]	1.64
FVESSGGGSSTVGQFVSLDGAGKT [A11T]	2.06
FVESSGGGSSVVGQFVSLDGAGKT [A11V]	2.4

Variant	protein stability index
FVESSGGGSSGVGQFVSLDGAGKT [A11G]	2.28
FVESSGGGSSIVGQFVSLDGAGKT [A11I]	2.41
FVESSGGGSSRVGQFVSLDGAGKT [A11R]	1.39
FVESSGGGSSKVGQFVSLDGAGKT [A11K]	1.41
FVESSGGGSSEVGQFVSLDGAGKT [A11E]	3.28
FVESSGGGSSAMGQFVSLDGAGKT [V12M]	2.52
FVESSGGGSSAKGQFVSLDGAGKT [V12K]	2.88
FVESSGGGSSASGQFVSLDGAGKT [V12S]	2.43
FVESSGGGSSADGQFVSLDGAGKT [V12D]	3.13
FVESSGGGSSAAGQFVSLDGAGKT [V12A]	2.2
FVESSGGGSSAGGQFVSLDGAGKT [V12G]	2.37
FVESSGGGSSALGQFVSLDGAGKT [V12L]	1.95
FVESSGGGSSAPGQFVSLDGAGKT [V12P]	1.86
FVESSGGGSSAHGQFVSLDGAGKT [V12H]	2.25
FVESSGGGSSACGQFVSLDGAGKT [V12C]	2.37
FVESSGGGSSAIGQFVSLDGAGKT [V12I]	2.09
FVESSGGGSSATGQFVSLDGAGKT [V12T]	1.86
FVESSGGGSSAWGQFVSLDGAGKT [V12W]	3.19
FVESSGGGSSANGQFVSLDGAGKT [V12N]	3.08
FVESSGGGSSAYGQFVSLDGAGKT [V12Y]	1.29
FVESSGGGSSAFGQFVSLDGAGKT [V12F]	2.01
FVESSGGGSSARGQFVSLDGAGKT [V12R]	2.51
FVESSGGGSSAEGQFVSLDGAGKT [V12E]	2.87
FVESSGGHSSAVGQFVSLDGAGKT [G8H]	1.51

Variant	protein stability index
FVESSGGNSSAVGQFVSLDGAGKT [G8N]	2.12
FVESSGGKSSAVGQFVSLDGAGKT [G8K]	2.89
FVESSGGESSAVGQFVSLDGAGKT [G8E]	3.31
FVESSGGFSSAVGQFVSLDGAGKT [G8F]	1.69
FVESSGGQSSAVGQFVSLDGAGKT [G8Q]	3.27
FVESSGGLSSAVGQFVSLDGAGKT [G8L]	2.06
FVESSGGVSSAVGQFVSLDGAGKT [G8V]	1.95
FVESSGGPSSAVGQFVSLDGAGKT [G8P]	2.08
FVESSGGCSSAVGQFVSLDGAGKT [G8C]	1.95
FVESSGGMSSAVGQFVSLDGAGKT [G8M]	1.71
FVESSGGASSAVGQFVSLDGAGKT [G8A]	2.36
FVESSGGRSSAVGQFVSLDGAGKT [G8R]	1.32
FVESSGGYSSAVGQFVSLDGAGKT [G8Y]	2.46
FVESSGGDSSAVGQFVSLDGAGKT [G8D]	2.44
FVESSGGTSSAVGQFVSLDGAGKT [G8T]	2.52
FVESSGGISSAVGQFVSLDGAGKT [G8I]	1.84
FVESSGGSSSAVGQFVSLDGAGKT [G8S]	2.06
FVESSGGGSSAVGQRVSLDGAGKT [F15R]	2.69
FVESSGGGSSAVGQYVSLDGAGKT [F15Y]	2.59
FVESSGGGSSAVGQKVSLDGAGKT [F15K]	3.1
FVESSGGGSSAVGQDVSLDGAGKT [F15D]	4.4
FVESSGGGSSAVGQSVSLDGAGKT [F15S]	2.73
FVESSGGGSSAVGQHVSLDGAGKT [F15H]	3.01
FVESSGGGSSAVGQAVSLDGAGKT [F15A]	2.31

Variant	protein stability index
FVESSGGGSSAVGQQVSLDGAGKT [F15Q]	2.56
FVESSGGGSSAVGQGVSLDGAGKT [F15G]	2.68
FVESSGGGSSAVGQNVSLDGAGKT [F15N]	2.83
FVESSGGGSSAVGQVVSLDGAGKT [F15V]	2.12
FVESSGGGSSAVGQWVSLDGAGKT [F15W]	2.06
FVESSGGGSSAVGQEVSLDGAGKT [F15E]	3.35
FVESSGGGSSAVGQPVSLDGAGKT [F15P]	3.14
FVESSGGGSSAVGQLVSLDGAGKT [F15L]	2.27
FVESSGGGSSAVGQMVSLDGAGKT [F15M]	2.22
FVESSGGGSSAVGQIVSLDGAGKT [F15I]	2.55
FVESSGGGSSAVGQTVSLDGAGKT [F15T]	2.96
FVESSGGGFSAVGQFVSLDGAGKT [S9F]	1.49
FVESSGGGDSAVGQFVSLDGAGKT [S9D]	3.03
FVESSGGGGSAVGQFVSLDGAGKT [S9G]	2.36
FVESSGGGTSAVGQFVSLDGAGKT [S9T]	2.29
FVESSGGGWSAVGQFVSLDGAGKT [S9W]	2.93
FVESSGGGKSAVGQFVSLDGAGKT [S9K]	1.72
FVESSGGGRSAVGQFVSLDGAGKT [S9R]	1.68
FVESSGGGHSAVGQFVSLDGAGKT [S9H]	2.17
FVESSGGGISAVGQFVSLDGAGKT [S9I]	2.39
FVESSGGGCSAVGQFVSLDGAGKT [S9C]	2.22
FVESSGGGYSAVGQFVSLDGAGKT [S9Y]	2.82
FVESSGGGESAVGQFVSLDGAGKT [S9E]	3.38
FVESSGGGLSAVGQFVSLDGAGKT [S9L]	1.77

Variant	protein stability index
FVESSGGGPSAVGQFVSLDGAGKT [S9P]	1.5
FVESSGGGQSAVGQFVSLDGAGKT [S9Q]	2.22
FVESSGGGASAVGQFVSLDGAGKT [S9A]	2.2
FVESSGGGVSAVGQFVSLDGAGKT [S9V]	2.58
FVESSGGGNSAVGQFVSLDGAGKT [S9N]	2.38
FVESSGGGMSAVGQFVSLDGAGKT [S9M]	1.99
FVESSGGGSSAVGQFVGLDGAGKT [S17G]	3.15
FVESSGGGSSAVGQFVILDGAGKT [S17I]	1.23
FVESSGGGSSAVGQFVQLDGAGKT [S17Q]	2.81
FVESSGGGSSAVGQFVRLDGAGKT [S17R]	1.73
FVESSGGGSSAVGQFVKLDGAGKT [S17K]	1.89
FVESSGGGSSAVGQFVPLDGAGKT [S17P]	1.81
FVESSGGGSSAVGQFVALDGAGKT [S17A]	3.26
FVESSGGGSSAVGQFVCLDGAGKT [S17C]	1.83
FVESSGGGSSAVGQFVLLDGAGKT [S17L]	2.33
FVESSGGGSSAVGQFVDLDGAGKT [S17D]	2.39
FVESSGGGSSAVGQFVHLDGAGKT [S17H]	2.54
FVESSGGGSSAVGQFVFLDGAGKT [S17F]	1.72
FVESSGGGSSAVGQFVMLDGAGKT [S17M]	1.57
FVESSGGGSSAVGQFVNLDGAGKT [S17N]	2.19
FVESSGGGSSAVGQFVELDGAGKT [S17E]	2.53
FVESSGGGSSAVGCFVSLDGAGKT [Q14C]	1.96
FVESSGGGSSAVGKFVSLDGAGKT [Q14K]	1.72
FVESSGGGSSAVGYFVSLDGAGKT [Q14Y]	1.75

Variant	protein stability index
FVESSGGGSSAVGAFVSLDGAGKT [Q14A]	1.73
FVESSGGGSSAVGIFVSLDGAGKT [Q14I]	2.53
FVESSGGGSSAVGMFVSLDGAGKT [Q14M]	3.29
FVESSGGGSSAVGNFVSLDGAGKT [Q14N]	1.9
FVESSGGGSSAVGDFVSLDGAGKT [Q14D]	2.73
FVESSGGGSSAVGPFVSLDGAGKT [Q14P]	3.44
FVESSGGGSSAVGEFVSLDGAGKT [Q14E]	2.89
FVESSGGGSSAVGTFVSLDGAGKT [Q14T]	1.86
FVESSGGGSSAVGLFVSLDGAGKT [Q14L]	1.04
FVESSGGGSSAVGHFVSLDGAGKT [Q14H]	1.68
FVESSGGGSSAVGSFVSLDGAGKT [Q14S]	1.78
FVESSGGGSSAVGRFVSLDGAGKT [Q14R]	1.39
FVESSGGGSSAVGGFVSLDGAGKT [Q14G]	2.06
FVESSGSGSSAVGQFVSLDGAGKT [G7S]	1.78
FVESSGLGSSAVGQFVSLDGAGKT [G7L]	1.52
FVESSGVGSSAVGQFVSLDGAGKT [G7V]	1.61
FVESSGWGSSAVGQFVSLDGAGKT [G7W]	2.54
FVESSGNGSSAVGQFVSLDGAGKT [G7N]	2.26
FVESSGKGSSAVGQFVSLDGAGKT [G7K]	2.09
FVESSGTGSSAVGQFVSLDGAGKT [G7T]	2.38
FVESSGIGSSAVGQFVSLDGAGKT [G7I]	1.81
FVESSGPGSSAVGQFVSLDGAGKT [G7P]	2.34
FVESSGMGSSAVGQFVSLDGAGKT [G7M]	2.05
FVESSGRGSSAVGQFVSLDGAGKT [G7R]	1.38

Variant	protein stability index
FVESSGFGSSAVGQFVSLDGAGKT [G7F]	2.93
FVESSGHGSSAVGQFVSLDGAGKT [G7H]	1.68
FVESSGQGSSAVGQFVSLDGAGKT [G7Q]	2.26
FVESSGGGSSAVKQFVSLDGAGKT [G13K]	2.06
FVESSGGGSSAVIQFVSLDGAGKT [G13I]	1.02
FVESSGGGSSAVMQFVSLDGAGKT [G13M]	1.66
FVESSGGGSSAVCQFVSLDGAGKT [G13C]	1.92
FVESSGGGSSAVDQFVSLDGAGKT [G13D]	3.3
FVESSGGGSSAVSQFVSLDGAGKT [G13S]	2.05
FVESSGGGSSAVFQFVSLDGAGKT [G13F]	4.42
FVESSGGGSSAVRQFVSLDGAGKT [G13R]	2.41
FVESSGGGSSAVHQFVSLDGAGKT [G13H]	1.84
FVESSGGGSSAVQQFVSLDGAGKT [G13Q]	1.93
FVESSGGGSSAVEQFVSLDGAGKT [G13E]	2.96
FVESSGGGSSAVLQFVSLDGAGKT [G13L]	2.05
FVESSGGGSSAVTQFVSLDGAGKT [G13T]	2.3
FVESSGGGSSAVNQFVSLDGAGKT [G13N]	1.81
FVESSGGGSSAVWQFVSLDGAGKT [G13W]	1.49
FVESSGGGSSAVPQFVSLDGAGKT [G13P]	2.18
FVESSGGGSSAVVQFVSLDGAGKT [G13V]	2.25
